From patent EP1789452B1, “RELAXIN-CHIMERIC POLYPEPTIDES AND THEIR PREPARATION AND USE” (Janssen Pharmaceutica NV, priority 2004, dated 2006)

Tests used:
human LGR7 (human) = human LGR7 (human) (UniProt Q9HBX9); experiment: cell-based or functional assay
human LGR8 (human) = human LGR8 (human) (UniProt Q8WXD0); experiment: cell-based or functional assay
rat GPCR135 (rat) = rat GPCR135 (rat) (UniProt Q5Y987); experiment: competition with 100 pM [125I] human R3, COS-7 membranes with rat GPCR135
rat LGR7 (rat) = rat LGR7 (rat) (UniProt Q6R6I6); experiment: competition with 100 pM [125I] human relaxin-2, COS-7 membranes with rat LGR7
rat LGR7 (rat), sequence (Q6R6I6 whole entry): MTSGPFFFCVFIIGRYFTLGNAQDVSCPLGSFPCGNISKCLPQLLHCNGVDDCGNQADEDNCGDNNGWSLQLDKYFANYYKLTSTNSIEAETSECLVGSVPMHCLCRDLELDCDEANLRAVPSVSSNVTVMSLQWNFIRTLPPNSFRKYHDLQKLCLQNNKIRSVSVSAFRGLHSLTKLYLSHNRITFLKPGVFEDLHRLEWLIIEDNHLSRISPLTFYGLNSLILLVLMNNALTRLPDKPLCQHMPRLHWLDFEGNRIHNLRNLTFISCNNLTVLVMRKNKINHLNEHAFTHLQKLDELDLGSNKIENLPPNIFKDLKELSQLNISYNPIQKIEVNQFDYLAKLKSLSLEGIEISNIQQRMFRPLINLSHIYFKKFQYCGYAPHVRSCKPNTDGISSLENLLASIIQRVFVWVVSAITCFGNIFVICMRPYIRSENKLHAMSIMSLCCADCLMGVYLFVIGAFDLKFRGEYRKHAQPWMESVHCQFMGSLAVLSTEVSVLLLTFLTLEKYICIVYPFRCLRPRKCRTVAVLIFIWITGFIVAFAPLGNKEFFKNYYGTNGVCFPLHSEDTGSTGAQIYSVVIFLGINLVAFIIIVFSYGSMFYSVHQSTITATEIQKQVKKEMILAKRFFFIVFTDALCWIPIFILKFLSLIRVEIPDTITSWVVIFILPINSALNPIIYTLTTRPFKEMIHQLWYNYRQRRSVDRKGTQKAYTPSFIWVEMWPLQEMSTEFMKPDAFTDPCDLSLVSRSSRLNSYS

human LGR7 (human), sequence (Q9HBX9 whole entry): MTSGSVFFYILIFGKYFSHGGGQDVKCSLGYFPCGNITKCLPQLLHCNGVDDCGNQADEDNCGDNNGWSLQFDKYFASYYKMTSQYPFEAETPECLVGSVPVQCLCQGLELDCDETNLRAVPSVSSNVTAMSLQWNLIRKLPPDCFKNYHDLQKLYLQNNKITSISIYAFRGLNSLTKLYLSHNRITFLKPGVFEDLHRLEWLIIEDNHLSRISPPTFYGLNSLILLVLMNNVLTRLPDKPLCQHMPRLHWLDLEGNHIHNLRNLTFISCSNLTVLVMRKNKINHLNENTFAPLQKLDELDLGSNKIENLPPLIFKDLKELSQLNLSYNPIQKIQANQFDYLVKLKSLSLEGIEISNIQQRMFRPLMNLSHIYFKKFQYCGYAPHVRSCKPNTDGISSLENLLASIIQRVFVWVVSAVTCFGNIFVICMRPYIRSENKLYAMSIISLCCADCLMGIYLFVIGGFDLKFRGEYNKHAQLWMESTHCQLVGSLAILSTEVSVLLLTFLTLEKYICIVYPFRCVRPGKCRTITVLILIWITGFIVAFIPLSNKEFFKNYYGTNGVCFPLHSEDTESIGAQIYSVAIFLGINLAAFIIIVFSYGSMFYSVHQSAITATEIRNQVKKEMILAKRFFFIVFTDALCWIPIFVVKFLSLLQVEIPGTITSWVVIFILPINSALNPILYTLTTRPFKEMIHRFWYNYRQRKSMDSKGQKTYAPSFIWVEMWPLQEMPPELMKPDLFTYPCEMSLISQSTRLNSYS
rat GPCR135 (rat), sequence (Q5Y987 entry or part of it): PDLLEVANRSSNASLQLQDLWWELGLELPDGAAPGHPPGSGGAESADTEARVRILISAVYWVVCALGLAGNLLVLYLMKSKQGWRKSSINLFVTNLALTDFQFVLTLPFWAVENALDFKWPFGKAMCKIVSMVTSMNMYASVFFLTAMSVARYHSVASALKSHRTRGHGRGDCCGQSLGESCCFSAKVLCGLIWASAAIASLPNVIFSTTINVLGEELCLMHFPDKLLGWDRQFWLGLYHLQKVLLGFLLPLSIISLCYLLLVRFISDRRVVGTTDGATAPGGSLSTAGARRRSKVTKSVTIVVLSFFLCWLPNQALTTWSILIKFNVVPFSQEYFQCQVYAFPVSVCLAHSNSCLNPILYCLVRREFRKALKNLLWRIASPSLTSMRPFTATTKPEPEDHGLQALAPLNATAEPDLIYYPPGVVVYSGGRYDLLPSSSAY
human LGR8 (human), sequence (Q8WXD0 whole entry): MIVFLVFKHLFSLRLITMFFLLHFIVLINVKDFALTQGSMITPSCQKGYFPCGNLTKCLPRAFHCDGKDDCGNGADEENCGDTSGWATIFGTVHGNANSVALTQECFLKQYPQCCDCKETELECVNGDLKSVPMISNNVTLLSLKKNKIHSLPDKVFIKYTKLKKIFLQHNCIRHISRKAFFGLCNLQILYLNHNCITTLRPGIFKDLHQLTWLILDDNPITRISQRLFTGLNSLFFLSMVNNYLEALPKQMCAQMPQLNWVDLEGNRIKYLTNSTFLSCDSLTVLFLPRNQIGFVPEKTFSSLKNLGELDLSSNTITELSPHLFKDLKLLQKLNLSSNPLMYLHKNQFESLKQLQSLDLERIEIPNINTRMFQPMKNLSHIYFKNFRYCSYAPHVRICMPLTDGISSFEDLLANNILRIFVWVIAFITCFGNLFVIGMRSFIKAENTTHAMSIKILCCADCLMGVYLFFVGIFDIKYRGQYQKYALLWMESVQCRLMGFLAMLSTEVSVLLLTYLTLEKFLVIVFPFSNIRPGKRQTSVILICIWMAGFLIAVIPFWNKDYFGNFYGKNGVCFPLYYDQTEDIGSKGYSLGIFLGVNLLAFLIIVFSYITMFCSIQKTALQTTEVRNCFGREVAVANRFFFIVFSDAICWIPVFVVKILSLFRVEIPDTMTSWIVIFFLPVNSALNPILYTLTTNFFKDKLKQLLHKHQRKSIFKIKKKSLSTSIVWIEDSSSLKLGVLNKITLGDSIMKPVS

| stimulation of β-galactosidase activity in SK-N-MC/β-gal cells, EC50 (human LGR7 (human)) | induction of β-galactosidase activity in SK-N-MC/β-gal cells, EC50 (human LGR8 (human)) | IC50 (rat GPCR135 (rat)) | IC50 (rat LGR7 (rat)) | Substance |
| --- | --- | --- | --- | --- |
| 0.25 nM | 1.5 nM | – | – | porcine relaxin (from UniProt P01348 25-56; P01348 161-182) (ligand) |
| – | – | > 1000 nM | 0.2 nM | human relaxin (R1) (from UniProt P04808 26-53; P04808 162-185) (ligand) |
